According to patent US20200256882A1, “FLUID PROPERTY MEASUREMENT DEVICES AND METHODS” (Abram Scientific, Inc., priority 2019, published 2020):

Tested on: whole blood samples (extrinsic coagulation pathway)
Assay: Thromboelastogram (TEG) coagulation test on disposable test strip
Type: biochemical
Conditions: blood samples with increasing concentrations, 0 to 1.8 nM; FIG. 19(b)
Method: The disposable test strips used in this example were incorporated with a reagent comprising of rabbit brain thromboplastin (Pacific Hemostasis Prothrombin Time reagent, Thromboplastin-DS, Product# 29-227-3), calcium chloride (25 mM) and Tween (2% v/v aqueous solution). Prior to the final assembly of the strip, the reagent was incorporated by dispensing the solution on to the exposed hydrophilic surface in the bottom stack, followed by air-drying in a drying box with humidity control at standard room temperature and pressure. The ratio of the volume of the reagent to blood tested in the chamber was maintained at close to 2:1 to ensure successful initiation of the blood coagulation reaction. […] Lastly, in some tests, blood samples were also tested using 2 Haemonetics' TEG-5000 instruments (2 tests per instrument) and their corresponding TEG curve & parameters were recorded, in order to perform side-by-side comparison with the results generated using the disposable test strips. Results: • In this example, the oscillation characteristics (amplitude and phase) of the in-plane vibration mode of a physical element in single-use disposable test strips were measured as a function of frequency in the vicinity of the resonance frequency, and these amplitude & phase frequency scans were monitored periodically to determine different aspects of the blood coagulation cascade. […]

B1: tPA: tissue plasminogen activator, enhances the external fibrinolysis process (protein, UniProt P00750 36-562, looked up)
Tissue-type plasminogen …: SYQVICRDEKTQMIYQQHQSWLRPVLRSNRVEYCWCNSGRAQCHSVPVKSCSEPRCFNGGTCQQALYFSDFVCQCPEGFAGKCCEIDTRATCYEDQGISYRGTWSTAESGAECTNWNSSALAQKPYSGRRPDAIRLGLGNHNYCRNPDRDSKPWCYVFKAGKYSSEFCSTPACSEGNSDCYFGNGSAYRGTHSLTESGASCLPWNSMILIGKVYTAQNPSAQALGLGKHNYCRNPDGDAKPWCHVLKNRRLTWEYCDVPSCSTCGLRQYSQPQFRIKGGLFADIASHPWQAAIFAKHRRSPGERFLCGGILISSCWILSAAHCFQERFPPHHLTVILGRTYRVVPGEEEQKFEVEKYIVHKEFDDDTYDNDIALLQLKSDSSRCAQESSVVRTVCLPPADLQLPDWTECELSGYGKHEALSPFYSERLKEAHVRLYPSSRCTSQHLLNRTVTDNMLCAGDTRSGGPQANLHDACQGDSGGPLVCLNDGRMTLVGIISWGLGCGQKDVPGVYTKVTNYLDWIRDNMRP
- fibrinolysis rate Lys-Rate: increasing trend
